T1: FcγRIIb extracellular domain with C-terminal His tag (human, UniProt P31994 43-217)
T1 construct: extracellular domain; soluble analyte in Biacore; also called FcgRIIb; not shown: His tag at the C terminus
T1 sequence (looked up): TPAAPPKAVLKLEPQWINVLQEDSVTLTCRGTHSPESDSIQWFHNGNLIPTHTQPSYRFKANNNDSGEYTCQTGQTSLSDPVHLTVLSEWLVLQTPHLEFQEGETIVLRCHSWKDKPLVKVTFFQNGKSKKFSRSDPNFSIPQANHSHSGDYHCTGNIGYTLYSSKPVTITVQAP

T2: FcγRIIb extracellular domain with C-terminal His tag (human, UniProt P31994 43-217)
T2 construct: extracellular domain; expressed in FreeStyle293 cells; analyte in Biacore; also called FcgRIIb; 2b
T2 sequence (looked up): T1 sequence (looked up)

B1: GpH7-A5/GpH7-B3 variant D270_01G/GpL16-k0 (antibody, human IgG1, kappa)
heavy 1: not shown
heavy 2: not shown
light: DIVMTQSPLSLPVTPGEPASISCQASESLVHSNRNTYLHWYLQKPGQSPQLLIYKVSNRFSGVPDRFSGSGSGTDFTLKISRVEAEDVGVYYCSQNTHVPPTFGQGTKVEIERTVAAPSVFIFPPSDEQLKSGTASVVCLLNNFYPREAKVQWKVDNALQSGNSQESVTEQDSKDSTYSLSSTLTLSKADYEKHKVYACEVTHQGLSSPVTKSFNRGEC
notes: change in the GpH7-B3 H chain only; also called He Ab
B2: GpH7-A5/GpH7-B3 variant D270_07I/GpL16-k0 (antibody, human IgG1, kappa)
heavy 1: not shown
heavy 2: not shown
light: B1 light
notes: as for B1
B3: GpH7-A5/GpH7-B3 variant D270_03V/GpL16-k0 (antibody, human IgG1, kappa)
heavy 1: not shown
heavy 2: not shown
light: B1 light
notes: as for B1
B4: GpH7-A5/GpH7-B3 variant D270_08L/GpL16-k0 (antibody, human IgG1, kappa)
heavy 1: not shown
heavy 2: not shown
light: B1 light
notes: as for B1
B5: GpH7-A5/GpH7-B3 variant D270_02A/GpL16-k0 (antibody, human IgG1, kappa)
heavy 1: not shown
heavy 2: not shown
light: B1 light
notes: as for B1
B6: GpH7-A5/GpH7-B3 variant D270_11K/GpL16-k0 (antibody, human IgG1, kappa)
heavy 1: not shown
heavy 2: not shown
light: B1 light
notes: as for B1
B7: GpH7-A5/GpH7-B3 variant D270_05P/GpL16-k0 (antibody, human IgG1, kappa)
heavy 1: not shown
heavy 2: not shown
light: B1 light
notes: as for B1
B8: GpH7-A5/GpH7-B3 variant D270_12R/GpL16-k0 (antibody, human IgG1, kappa)
heavy 1: not shown
heavy 2: not shown
light: B1 light
notes: as for B1
B9: GpH7-A5/GpH7-B3 variant D270_04F/GpL16-k0 (antibody, human IgG1, kappa)
heavy 1: not shown
heavy 2: not shown
light: B1 light
notes: as for B1
B10: GpH7-A5/GpH7-B3 variant D270_06M/GpL16-k0 (antibody, human IgG1, kappa)
heavy 1: not shown
heavy 2: not shown
light: B1 light
notes: as for B1
B11: GpH7-A5/GpH7-B3 variant D265_01G/GpL16-k0 (antibody, human IgG1, kappa)
heavy 1: not shown
heavy 2: not shown
light: B1 light
notes: He Ab; IgG1, mutation in one H chain
B12: GpH7-A5/GpH7-B3 variant D265_07I/GpL16-k0 (antibody, human IgG1, kappa)
heavy 1: not shown
heavy 2: not shown
light: B1 light
notes: as for B11
B13: GpH7-A5/GpH7-B3 variant V266_04F/GpL16-k0 (antibody, human IgG1, kappa)
heavy 1: not shown
heavy 2: not shown
light: B1 light
notes: as for B11
B14: GpH7-A5/GpH7-B3 variant D265_19Q/GpL16-k0 (antibody, human IgG1, kappa)
heavy 1: not shown
heavy 2: not shown
light: B1 light
notes: as for B11
B15: GpH7-A5/GpH7-B3 variant D265_14T/GpL16-k0 (antibody, human IgG1, kappa)
heavy 1: not shown
heavy 2: not shown
light: B1 light
notes: as for B11
B16: GpH7-A5/GpH7-B3 variant D265_20W/GpL16-k0 (antibody, human IgG1, kappa)
heavy 1: not shown
heavy 2: not shown
light: B1 light
notes: as for B11
B17: GpH7-A5/GpH7-B3 variant D265_08L/GpL16-k0 (antibody, human IgG1, kappa)
heavy 1: not shown
heavy 2: not shown
light: B1 light
notes: as for B11

Molecular target: T3, FcγRIa extracellular domain with C-terminal His tag (human, UniProt P12314 16-292)
T3 construct: extracellular domain; soluble analyte in Biacore; also called FcgRI; not shown: His tag at the C terminus
Assay: SPR; He/Con_1a divided by He/Con_2b (FcγRIa against FcγRIIb)
Description: The heterodimerized antibodies He Abs in which one of the H chains was introduced with an alteration were assayed for their binding activities to each activating FcγR and inhibitory FcγR according to the method described in Example 4. […] The activating FcγRs in FIGS. 26, 27, 28, and 29 are FcγRIa, FcγRIIa (R), FcγRIIa (H), and FcγRIIIa, respectively.
Analysis of interaction between objective antibody and the FcγR was carried out using Biacore T100 (GE Healthcare). HBS-EP+ (GE Healthcare) was used as the running buffer, and the measurement temperature was set to 25° C. Chips produced by immobilizing the antigen peptide by the amine coupling method to a Series S Sencor Chip CM5 (GE Healthcare), or alternatively, chips produced by allowing preliminarily biotinylated antigen peptides to interact with and immobilize onto a Series S Sensor Chip SA (certified) (GE Healthcare) were used. Antibodies of interest were captured onto an antigen peptide-immobilized chip, and allowed to interact to each FcγR diluted with running buffer. To regenerate and repeatedly use the chip, the antibodies captured on the chip were washed off by reacting 10 mM glycine-HCl, pH 1.5.
T3 sequence (P12314 16-292): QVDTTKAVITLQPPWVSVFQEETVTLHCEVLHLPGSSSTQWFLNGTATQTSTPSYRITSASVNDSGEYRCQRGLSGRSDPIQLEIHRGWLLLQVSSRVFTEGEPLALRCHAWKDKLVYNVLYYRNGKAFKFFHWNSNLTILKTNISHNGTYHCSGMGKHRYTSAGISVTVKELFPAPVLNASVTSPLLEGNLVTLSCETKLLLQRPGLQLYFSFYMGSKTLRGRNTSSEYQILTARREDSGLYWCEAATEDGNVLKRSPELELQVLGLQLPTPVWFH

He_1a/2b (Ia/IIb) [ratio]	Binder
2.5	B1
1.8	B2
1.97	B3
1.37	B4
1.48	B5
2.88	B6
4.81	B7
3.63	B8
1.47	B9
1.64	B10

Molecular target: T3, FcγRIa extracellular domain with …
Assay: SPR, binding relative to GpH7-A5/GpH7-B3/GpL16-k0 = 100

He/Con_1a	Binder
76.3 % of control	B1
74.6 % of control	B2
77.9 % of control	B3
73.5 % of control	B4
71.5 % of control	B5
58.4 % of control	B6
67.1 % of control	B7
66.3 % of control	B8
78.1 % of control	B9
78.8 % of control	B10

Molecular target: T1, FcγRIIb extracellular domain with …
Assay: as above

He/Con_2b	Binder
30.5 % of control	B1
41.5 % of control	B2
39.5 % of control	B3
53.6 % of control	B4
48.3 % of control	B5
20.3 % of control	B6
13.9 % of control	B7
18.3 % of control	B8
53.1 % of control	B9
48.2 % of control	B10

Molecular target: T4, FcγRIa extracellular domain with C-terminal His tag (human, UniProt P12314 16-292)
T4 construct: extracellular domain; expressed in FreeStyle293 cells; analyte in Biacore; also called FcgRI; 1a
Assay: SPR (Biacore); He/Con_1a divided by He/Con_2b (FcγRIIb as reference)
T4 sequence (P12314 16-292): as above

He_1a/2b (Ia/IIb) [ratio]	Binder
4.95	B11
41.2	B12
1.68	B13
2.66	B14
4.9	B15
45.6	B16
12.4	B17

Molecular target: T4, FcγRIa extracellular domain with …
Assay: SPR (Biacore), captured antibody, FcγR as analyte; relative binding

He/Con_1a	Binder
79.9 % of HeCon Ab (GpH7-A5/GpH7-B3/GpL16-k0 = 100)	B11
54.4 % of HeCon Ab (GpH7-A5/GpH7-B3/GpL16-k0 = 100)	B12
96.7 % of HeCon Ab (GpH7-A5/GpH7-B3/GpL16-k0 = 100)	B13
88.8 % of HeCon Ab (GpH7-A5/GpH7-B3/GpL16-k0 = 100)	B14
78.5 % of HeCon Ab (GpH7-A5/GpH7-B3/GpL16-k0 = 100)	B15
51.5 % of HeCon Ab (GpH7-A5/GpH7-B3/GpL16-k0 = 100)	B16
56.8 % of HeCon Ab (GpH7-A5/GpH7-B3/GpL16-k0 = 100)	B17

Molecular target: T2, FcγRIIb extracellular domain with …
Assay: as above

He/Con_2b	Binder
16.1 % of HeCon Ab (GpH7-A5/GpH7-B3/GpL16-k0 = 100)	B11
1.3 % of HeCon Ab (GpH7-A5/GpH7-B3/GpL16-k0 = 100)	B12
57.6 % of HeCon Ab (GpH7-A5/GpH7-B3/GpL16-k0 = 100)	B13
33.4 % of HeCon Ab (GpH7-A5/GpH7-B3/GpL16-k0 = 100)	B14
16 % of HeCon Ab (GpH7-A5/GpH7-B3/GpL16-k0 = 100)	B15
1.1 % of HeCon Ab (GpH7-A5/GpH7-B3/GpL16-k0 = 100)	B16
4.6 % of HeCon Ab (GpH7-A5/GpH7-B3/GpL16-k0 = 100)	B17

Reference: patent US20150344570A1 (published 2015)
